Measured values taken from US20080311122A1, “Antagonists of Hmgb1 and/or Rage and Methods of Use Thereof” (Medimmune, LLC, priority 2005, published 2008).

How the values were obtained:
[1] = molecular target: HMG1 purified from bovine (calf) thymus (bovine) (UniProt P10103); experiment: cell-based or functional assay
[2] = molecular target: HMGB1 in DNA immune complexes of human lupus plasma (human) (UniProt P09429); experiment: cell-based or functional assay
Sequence of HMGB1 in DNA immune complexes of human lupus plasma (human) (P09429 whole entry, one chain of several): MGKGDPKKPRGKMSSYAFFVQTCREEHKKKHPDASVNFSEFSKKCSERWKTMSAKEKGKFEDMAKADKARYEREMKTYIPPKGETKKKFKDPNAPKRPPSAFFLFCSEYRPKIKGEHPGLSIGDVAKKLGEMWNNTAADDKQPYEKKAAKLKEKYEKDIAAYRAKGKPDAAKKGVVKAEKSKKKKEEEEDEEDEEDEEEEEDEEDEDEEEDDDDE

Sequence of HMG1 purified from bovine (calf) thymus (bovine) (P10103 2-215 limits assumed): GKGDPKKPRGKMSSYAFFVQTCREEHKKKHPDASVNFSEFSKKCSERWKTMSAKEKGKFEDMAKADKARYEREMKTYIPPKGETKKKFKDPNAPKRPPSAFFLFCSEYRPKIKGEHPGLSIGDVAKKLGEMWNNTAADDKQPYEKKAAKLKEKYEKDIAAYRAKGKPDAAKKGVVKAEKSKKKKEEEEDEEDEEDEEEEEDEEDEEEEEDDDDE

IFN-a release from mouse bone marrow cells, HMGB/CpG-A mediated enhanced TLR9 signaling [1]: > 95%
decrease in IFIT1 mRNA in human PBMC stimulated with 20% lupus plasma [2]: 75%
Substance: RAGE-Fc fusion protein (species not stated)
